Patent US20200283507A1 (US Dept. of Health and Human Services, published 2020)
No end group written: not given here.

Experiments:
[1] = molecular target: T1, Hu/NoV/GII.3/CHDC4031/1988/U.S. VLP (human norovirus GII.3); test: VLP ELISA
T1 construct: mature; baculovirus VLP; VP2 may be present

[2] = molecular target: T2, Hu/NoV/GII.2/Henryton/1971/U.S. VLP (human norovirus GII.2); test: VLP ELISA
T2 construct: mature; baculovirus VLP; VP2 may be present

[3] = molecular target: T3, Hu/GII.6/Bethesda/2012/U.S. VLP (human norovirus GII.6); test: VLP ELISA
T3 construct: mature; baculovirus VLP; VP2 may be present

[4] = molecular target: T4, Hu/NoV/GII.4/CHDC4871/1977/U.S. VLP (human norovirus GII.4); test: VLP ELISA
T4 construct: mature; baculovirus VLP; VP2 may be present

[5] = molecular target: T5, Hu/NoV/GII.4/MD145-12/1997/U.S. VLP (human norovirus GII.4); test: VLP ELISA
T5 construct: mature; baculovirus VLP; VP2 may be present

[6] = molecular target: T6, Hu/NoV/GII.7/DC119/U.S. VLP (human norovirus GII.7); test: VLP ELISA
T6 construct: mature; baculovirus VLP; VP2 may be present

[7] = molecular target: T7, Hu/NoV/Snow Mountain/GII.2/U.S. VLP (human norovirus GII.2); test: VLP ELISA
T7 construct: mature; baculovirus VLP; VP2 may be present

[8] = molecular target: T8, Hu/NoV/GII.1/Hawaii/1971/U.S. VLP (human norovirus GII.1); test: VLP ELISA
T8 construct: mature; baculovirus VLP; VP2 may be present

[9] = molecular target: T9, Hu/NoV/GII.4/HS-191/2001/U.S. VLP (human norovirus GII.4); test: VLP ELISA
T9 construct: mature; baculovirus VLP; VP2 may be present

[10] = molecular target: T10, Hu/NoV/GII.4/MD2004/2004/U.S. VLP (human norovirus GII.4); test: VLP ELISA
T10 construct: mature; baculovirus VLP; VP2 may be present; also called MD2004 VLP

[11] = molecular target: T11, Hu/NoV/GII.14/M7/1999/U.S. VLP (human norovirus GII.14); test: VLP ELISA
T11 construct: mature; baculovirus VLP; VP2 may be present

[12] = molecular target: T12, Hu/NoV/GII.4/RockvilleD1/2012/U.S. VLP (human norovirus GII.4); test: VLP ELISA
T12 construct: mature; baculovirus VLP; VP2 may be present

[13] = molecular target: T5, Hu/NoV/GII.4/MD145-12/1997/U.S. VLP; test: cell-based or functional assay
[14] = molecular target: T13, Toronto VP1 peptide 507-523 (NoV Toronto strain, also: biotinylated (position not given here)); test: ELISA on biotinylated peptide
T13 construct: 17-mer of the P domain peptide library
T13 peptide: TVPPNGYFRFESWVNPF
Experimental: (§1) For this assay, a peptidic library of 67 peptides corresponding to the P domain of the VP1 amino acid sequence from NoV Toronto strain was synthetized. The peptides were 17 amino acids long, with 5 amino acids overlapping with the previous and the next peptide of the sequence. Neutravidin coated plates (PIERCE®) were used for this assay. The plates were coated with each biotinylated peptide in duplicates (2 μl of peptide/100 μl of PBS 0.1% BSA per well) overnight at 4° C. Then, after washing the plates, 100 ng/well of 7.5 VHH were added and the plates were incubated for 2 hours at room temperature. The plates were washed and incubated with rabbit anti-VHH serum (1/8,000) and HRP-conjugated goat anti-rabbit immunoglobulin G (1:2,000) (KPL). The signal was developed with ABTS/H₂O₂.

[15] = molecular target: T14, Toronto VP1 peptide 517-533 (NoV Toronto strain, also: biotinylated (position not given here)); test: ELISA on biotinylated peptide
T14 construct: 17-mer of the P domain peptide library
T14 peptide: ESWVNPFYTLAPMGTGN
Experimental: as §1

[16] = molecular target: T15, Toronto VP1 peptide 522-538 (NoV Toronto strain, also: biotinylated (position not given here)); test: ELISA on biotinylated peptide
T15 construct: 17-mer of the P domain peptide library
T15 peptide: PFYTLAPMGTGNGRRRI
Experimental: as §1

[17] = molecular target: T16, Toronto VP1 peptide 512-528 (NoV Toronto strain, also: biotinylated (position not given here)); test: ELISA on biotinylated peptide
T16 construct: 17-mer of the P domain peptide library, captured on neutravidin plates
T16 peptide: GYFRFESWVNPFYTLAP
Experimental: as §1

B1: VHH 7.5 (VHH)
VHH: QVKLQESGGGLVQAGESLRLSCAASGSNFSINGVGWYRQAPGKQRELVAGITNGGYTSYADSVKGRFTISTDNAKNTVYLQMNSLRPEDTAVYYCNANFQIHRSGADYVRNYWGQGTQVTVSA
notes: llama VHH, MD2004 library; pHEN6, C-terminal His6 tag; also called clone 7.5
- minimum concentration of VHH able to recognize 100 ng of VLP [1]: 1 ng/well
- minimum concentration of VHH able to recognize 100 ng of VLP [2]: 1 ng/well
- minimum concentration of VHH able to recognize 100 ng of VLP [3]: 1 ng/well
- minimum concentration of VHH able to recognize 100 ng of VLP [4]: 2 ng/well
- minimum concentration of VHH able to recognize 100 ng of VLP [5]: 0.5 ng/well
- minimum concentration of VHH able to recognize 100 ng of VLP [6]: 1 ng/well
- minimum concentration of VHH able to recognize 100 ng of VLP [7]: 2 ng/well
- minimum concentration of VHH able to recognize 100 ng of VLP [8]: 1 ng/well
- minimum concentration of VHH able to recognize 100 ng of VLP [9]: 2 ng/well
- minimum concentration of VHH able to recognize 100 ng of VLP [10]: 0.5 ng/well
- minimum concentration of VHH able to recognize 100 ng of VLP [11]: 1 ng/well
- minimum concentration of VHH able to recognize 100 ng of VLP [12]: 0.5 ng/well
- HAI titer, B Rh+ RBC [13]: 0.78 µg/mL
- binding result [14]: no binding (tested: 100 ng/well)
- binding result [15]: binds
- binding result [16]: no binding (tested: 100 ng/well)
- binding result [17]: binds
